The values below come from the supplement of paper PMC12764529.

The nature of series [1]: folding stability dG unfold (combined trypsin and chymotrypsin); higher = more stable. In a few lines:
(§1)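 Unfolding free energy was derived, per protease or combined, against a sequence-predicted unfolded-state K50 and a shared folded-state K50, starting from K50 inferred by Bayesian fitting of sequencing counts. Digestion with trypsin and chymotrypsin was carried out on designed mini-proteins under 80 residues without cysteine in a PA-tagged cDNA display construct. Only designs with AlphaFold2 dimer inter-PAE above 15 were kept.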

Series [2] in a line: folding stability dG unfold from chymotrypsin proteolysis; higher = more stable. A digest of the protocol:
as §1

A short description of series [3]: folding stability dG unfold from trypsin proteolysis; higher = more stable. In a few lines: as §1

± gives the half width of the 95% confidence interval.

Turning to “SAGGSAGGSAGGPKVFKFKDKIIVIYPNKKPNEEVKVVVKNPKTGKKEEFKIKIPKELLKSAGGSAGGSAGG [r7_834_TrMRF]”, the results for the “folding stability dG unfold” value in series [1], in series [2] and in series [3] were 0.847 ± 0.11 kcal/mol, 1.11 ± 0.13 kcal/mol and 0.512 ± 0.079 kcal/mol, respectively.
Taken in the same sequence, the figures for “SAGGSAGGSAGGPLIVFERNADGTLTAVAVDEETGEVTVTRVTLKDGKLTVETETLPLDESAGGSAGGSAGG [r7_28_TrROS_Hall]” were 1.65 ± 0.042 kcal/mol, 1.82 ± 0.017 kcal/mol and 1.49 ± 0.048 kcal/mol.
Take “SAGGSAGGSAGGPNHYVMATETIEFEFEIRTRNEDGKPQEIKIKFTLTVIRMFPLPPGDPSAGGSAGGSAGG [r7_926_TrROS]”: the figures for the “folding stability dG unfold” value in series [1], in series [2] and in series [3] were 4.73 ± 0.25 kcal/mol, 5.03 ± 0.26 kcal/mol and 3.36 ± 0.42 kcal/mol, respectively.
Taken in the same sequence, the figures for “SAGGSAGGSAGGPNNKPKPKQVTFDIEIEDIEIDPEHGLISIEIRFPDGGKEITARIPISAGGSAGGSAGGS [r10_427_TrROS]” were 0.276 ± 0.16 kcal/mol, 0.27 ± 0.11 kcal/mol and 0.14 ± 0.059 kcal/mol.
The matching figures for “SAGGSAGGSAGGPPDLVKVRFIKVSVKLKEVKENPNGEKEMKLEMKIEEVEVTVRKDDLSAGGSAGGSAGGS [r10_524_TrROS_Hall]”: 2.71 ± 0.15 kcal/mol, 2.71 ± 0.12 kcal/mol and 2.61 ± 0.21 kcal/mol.
On to “SAGGSAGGSAGGPPVTLLVVVRNEDGSLYLVRVEFDLETNEVKVEVFTLDDLKNLPEELSAGGSAGGSAGGS [r10_1077_TrROS_Hall]”, for which the figures for the “folding stability dG unfold” value in series [1], in series [2] and in series [3] were 3.26 ± 0.25 kcal/mol, 3.66 ± 0.075 kcal/mol and 2.14 ± 0.14 kcal/mol, respectively.
With “SAGGSAGGSAGGPTLELEITLPDGFKLRVTFDPEKGLRVELVEPVPAPPPKVEYRSLEDLSAGGSAGGSAGG [r11_188_TrROS_Hall]”, the “folding stability dG unfold” value in series [1] came out at 1.37 ± 0.18 kcal/mol; in series [2], 1.62 ± 0.11 kcal/mol; in series [3] it was 0.552 ± 0.13 kcal/mol.
Taken in the same sequence, the figures for “SAGGSAGGSAGGPVFTPVGAGDEDTVTTETLPDGSPVLRYTVPGTGVVEVALPDGTLLAESAGGSAGGSAGG [r11_601_JUSTAS]” were -0.883 ± 0.22 kcal/mol, -1.66 ± 0.79 kcal/mol and -0.722 ± 0.073 kcal/mol.
On to “SAGGSAGGSAGGPYWRVKIEWMDPNGKKKEHTFTFPPGWPLEEIAEELKPNGYKIEVEPLSAGGSAGGSAGG [r7_226_TrROS]”, for which the “folding stability dG unfold” value in series [1] turned out to be 1.46 ± 0.085 kcal/mol; in series [2], 1.7 ± 0.1 kcal/mol; in series [3], 0.962 ± 0.044 kcal/mol.
The matching figures for “SAGGSAGGSAGGQTIVIDSRLLRTALENGDLEKLKALVEEAGYNPENAKIYLITPEELKESAGGSAGGSAGG [r7_3_TrMRF]”: 0.464 ± 0.055 kcal/mol, 0.741 ± 0.11 kcal/mol and -0.133 ± 0.1 kcal/mol.
Taken in the same sequence, the figures for “SAGGSAGGSAGGRFEVLGVEPLPGNWVRVRVRYPGLGREATFLVRVSSLPLPPVDLDRFDSAGGSAGGSAGG [r11_986_TrMRF]” were 2.71 ± 0.083 kcal/mol, 3.11 ± 0.046 kcal/mol and 1.82 ± 0.037 kcal/mol.
Taken in the same sequence, the figures for “SAGGSAGGSAGGSAGRLVKETKTTSYIFTFKKPTGEPISKKTSFVTSSLILLSDPSKISSAGGSAGGSAGGS [r4_450_JUSTAS]” were 4.6 ± 0.44 kcal/mol, 4.6 ± 0.39 kcal/mol and 4.18 ± 0.37 kcal/mol.
For “SAGGSAGGSAGGSAKIDLPFPAEITEIRPRPDGSVEIRLSFPTYTVTAIIPPNGIKIYGSAGGSAGGSAGGS [r4_280_TrMRF]”, the “folding stability dG unfold” value in series [1] was 0.487 ± 0.065 kcal/mol; in series [2] it was -0.0211 ± 0.11 kcal/mol; in series [3], 0.855 ± 0.017 kcal/mol.
Taken in the same sequence, the figures for “SAGGSAGGSAGGSAPPNLIIFIHVEIKIKEPKFDPGNGKPEYEIEITDIPIQIMPPDDLSAGGSAGGSAGGS [r4_417_TrROS]” were 2.26 ± 0.11 kcal/mol, 2.39 ± 0.088 kcal/mol and 2.15 ± 0.16 kcal/mol.
Taken in the same sequence, the figures for “SAGGSAGGSAGGSAPYPNTVVPTPLLSSVVTETTVEFFPDGTVVPVSTTTTVVLVYRLLSAGGSAGGSAGGS [r4_288_JUSTAS]” were 4.53 ± 0.15 kcal/mol, 4.75 ± 0.12 kcal/mol and 3.54 ± 0.13 kcal/mol.
The matching figures for “SAGGSAGGSAGGSDKGQPRVEIPMPFFMPNPNYVIRITMEIDLDPNGQIREIDVEVYKFSAGGSAGGSAGGS [r4_75_TrROS]”: 4.08 ± 0.14 kcal/mol, 4.67 ± 0.1 kcal/mol and 3.21 ± 0.096 kcal/mol.
For the sequence “SAGGSAGGSAGGSDVKIEVERGPNGYYTVTIELNGKPKIIPFPPGRPPEDAKDEIKDLLSAGGSAGGSAGGS [r4_7_TrROS]”, the entries for the “folding stability dG unfold” value in series [1], in series [2] and in series [3] were 0.335 ± 0.12 kcal/mol, -0.279 ± 0.13 kcal/mol and 0.554 ± 0.058 kcal/mol, respectively.
Taken in the same sequence, the figures for “SAGGSAGGSAGGSDYIMFRIPAPPGEKIEIPIPNGWEVEINPQPHNGRWYFMIKIPEDASAGGSAGGSAGGS [r4_360_TrROS]” were 1.13 ± 0.12 kcal/mol, 1.09 ± 0.11 kcal/mol and 1.05 ± 0.085 kcal/mol.
The matching figures for “SAGGSAGGSAGGSELIFKTEDGYYVKVKLKNGKTIVFPAENLEELKKLNVEKVEVVPAKSAGGSAGGSAGGS [r4_348_TrROS_Hall]”: 0.684 ± 0.064 kcal/mol, 0.831 ± 0.042 kcal/mol and 0.332 ± 0.039 kcal/mol.
The matching figures for “SAGGSAGGSAGGSEVEVLDSRPLPDGHHLVLVRFPDGSYALYRIYPDGSVEVEVFSDDGSAGGSAGGSAGGS [r4_483_TrMRF]”: 3.81 ± 0.084 kcal/mol, 4.205 ± 0.029 kcal/mol and 2.47 ± 0.066 kcal/mol.
“SAGGSAGGSAGGSFELVGLVSEFEDENGIPVRVFKAKNPLLGYEFLVVVLPNGEVFFLPSAGGSAGGSAGGS [r10_1123_TrMRF]”: the “folding stability dG unfold” value was 2.99 ± 0.089 kcal/mol in series [1], 3.124 ± 0.014 kcal/mol in series [2] and 2.8 ± 0.053 kcal/mol in series [3].
The matching figures for “SAGGSAGGSAGGSFKVTYFPGEKLLAVTFPDGSKKIFKIDDKGNPTIIAVIDPDKGKVLPSAGGSAGGSAGG [r7_659_TrMRF]”: 2.35 ± 0.051 kcal/mol, 2.622 ± 0.02 kcal/mol and 1.86 ± 0.034 kcal/mol.
The matching figures for “SAGGSAGGSAGGSGMTLPIPLSELTTEEIRELTKPDEDLVIKTEEDEPVVIPYGEIKPESAGGSAGGSAGGS [r4_382_JUSTAS]”: 0.204 ± 0.077 kcal/mol, -1.05 ± 0.3 kcal/mol and 0.694 ± 0.07 kcal/mol.
Taken in the same sequence, the figures for “SAGGSAGGSAGGSGMTLSVTVLEEKPERLPNGGTIITRTVRIPETGEVIEEVTYEPGALSAGGSAGGSAGGS [r4_94_JUSTAS]” were -0.092 ± 0.085 kcal/mol, 0.0529 ± 0.058 kcal/mol and -0.594 ± 0.17 kcal/mol.
With “SAGGSAGGSAGGSGMTPIPLEVLERKVTEYDPKNGKITVEALAILPDGTPVKLKFTVELSAGGSAGGSAGGS [r4_184_JUSTAS]”, the “folding stability dG unfold” value in series [1] is 1.37 ± 0.22 kcal/mol; in series [2] it was 1.37 ± 0.18 kcal/mol; in series [3], 1.11 ± 0.042 kcal/mol.
In the case of “SAGGSAGGSAGGSGPVPVTIKSVTTYPEKDVYKVETVPATPEPITITLSPEELSDVVILSAGGSAGGSAGGS [r4_51_JUSTAS]”, the “folding stability dG unfold” value is -0.561 ± 0.19 kcal/mol in series [1], -0.437 ± 0.2 kcal/mol in series [2] and -1.69 ± 0.57 kcal/mol in series [3].
The matching figures for “SAGGSAGGSAGGSGSITITYSSDGDKYSATFTVPDGTVVTVPNMSVDEAKKVAEKFLKSSAGGSAGGSAGGS [r4_383_JUSTAS]”: 0.659 ± 0.095 kcal/mol, 1.08 ± 0.12 kcal/mol and -0.389 ± 0.14 kcal/mol.
